Experimental data published in patent US6462173B1, “Inhibitors of phosphoserine and phosphothreonine-proline-specific isomerases” (Max-Planck-Gesellschaft zur Forderung der, priority 1997, dated 2002).

Assays:
[1] = tested on: T1, AAPF (peptide substrate)
T1 sequence: AAPF

[2] = tested on: T2, AEPF-pNA
T2 sequence: AEPFNA

Substance: GST-Pin1^H59A
- PPIase activity [1]: The PPIase activity of Pin1^H59A was barely detectable against either peptide substrate
- PPIase activity [2]: The PPIase activity of Pin1^H59A was barely detectable against either peptide substrate
